Numbered stars: 1 amine (or outer) side, 2 acyl side, 3 side chain; on linkers, the order of the positions; unused ones are H or OH. Bridge positions count the residues as written; N and C are the ends. Square brackets hold non-standard residues; d marks the D form. Peptide text beside a SMILES is read from it. * marks the point of attachment. ξ: configuration not given here. ξαMeNle(6-ylidene) = CC(CCCC=[*:3])(N[*:1])C(=O)[*:2]; S5 = C=CCCC[C@](C)(N)C(=O)O; Nle = CCCC[C@H](N)C(=O)O; Aib = CC(C)(N)C(=O)O; Propionyl = CCC(=O)*
B1: Compound 12 (crosslinked polypeptide derived from human BIM BH3) (peptide)
peptide: IWIAQALRXIGDXFNAYYARR
modifications: N-terminal acetyl (Ac); C-terminal amide (NH2); $ at 9 and 13 (alpha-methyl amino acids joined by an all-carbon eight-carbon crosslinker with a double bond)

Legend:
human serum proteins = test: Apparent affinity to human serum proteins (Kd*) by EC50 shift analysis; assay type: in vitro ADME; settings: nonlinear regression of EC50 shift with serum, n = 1, P = 700 μM for 100% serum
Text: The measurement of apparent Kd values for serum protein by EC50 shift analysis provides a simple and rapid means of quantifying the propensity of experimental compounds to bind HSA and other serum proteins. A linear relationship exists between the apparent EC50 in the presence of serum protein (EC′50) and the amount of serum protein added to an in vitro assay. This relationship is defined by the binding affinity of the compound for serum proteins, expressed as Kd*. This term is an experimentally determined, apparent dissociation constant that may result from the cumulative effects of multiple, experimentally indistinguishable, binding events. The form of this relationship is presented here in Eq. 0.3, and its derivation can be found in Copeland et al, Biorg. Med. Chem. Lett. 2004, 14:2309-2312. [formula] A significant proportion of serum protein binding can be ascribed to drug interactions with HSA, due to the very high concentration of this protein in serum (35-50 g/L or 530-758 μM). To calculate the Kd value for these compounds we have assumed that the shift in EC50 upon protein addition can be ascribed fully to the HSA present in the added serum, where P is 700 μM for 100% serum, P is 70 μM for 10% serum, etc. We further made the simplifying assumption that all of the compounds bind HSA with a 1:1 stoichiometry, so that the term n in Eq. (0.3) is fixed at unity. With these parameters in place we calculated the Kd* value for each stapled peptide from the changes in EC50 values with increasing serum (and serum protein) concentrations by nonlinear regression analysis of Eq. 0.3 using Mathematica 4.1 (Wolfram Research, Inc., www.wolfram.com). EC′50 values in whole blood are estimated by setting P in Eq. 0.3 to 700 μM [HSA].

Jurkat cell line = assay type: cell-based; settings: for EC50: 24 h; for efficacy in serum-free media and in the presence of serum: statement in words
Procedure: Jurkat cell line (Clone E6-1, ATCC catalog #TIB-152) is grown in specific serum-supplemented media (RPMI-1640, Invitrogen catalog #22400) as recommended by ATCC. A day prior to the initiation of the study, cells are split at optimal cell density (2×10^5-5×10^5 cells/ml) to assure actively dividing cells. The next day, cells are washed twice in serum-free Opti-MEM media (Invitrogen, Catalog #51985) and cells are then plated at optimal cell density (10,000 cells/well) in 50 μl Opti-MEM media or Opti-MEM supplemented with 2% or 10% human serum (Bioreclamation, catalog #HMSRM) in 96-well white tissue culture plate (Nunc, catalog #136102).
For serum free experiment, crosslinked polypeptides are diluted from 2 mM stocks (100% DMSO) in sterile water to prepare 400 μM working solutions. The crosslinked polypeptides and controls are diluted 10-fold first and then serially two-fold diluted in Opti-MEM in dosing plates to provide concentrations of between 1.2 and 40 μM. 50 μl of each dilution is then added to the appropriate wells of the test plate to achieve final concentrations of the polypeptides equal to between 0.6 to 20 μM. For studies using Opti-MEM supplemented with human serum (Bioreclamation, catalog #HMSRM), crosslinked polypeptides are diluted from 10 mM stocks (100% DMSO) in sterile water to prepare 2 mM working solutions. The crosslinked polypeptides and controls are diluted 10-fold first and then serially two-fold diluted in Opti-MEM in the presence of 2% or 10% of human serum to provide concentrations of the polypeptides equal to between 6.25 to 200 μM in dosing plates. 50 μl of each dilution is then added to the appropriate wells of the test plate to achieve final concentrations of the polypeptides equal to between 3.125 to 100 μM. Controls included wells without polypeptides containing the same concentration of DMSO as the wells containing the macrocycles, wells containing 0.1% Triton X-100 and wells containing no cells. Plates are incubated for 24 hours at 37° C. in humidified 5% CO2 atmosphere.
At the end of the incubation period, CellTiter-Glo assay is performed according to manufacturer's instructions (Promega, catalog #G7573) and luminescence is measured using Synergy HT Plate reader (BioTek). Luminescence correlates with viability. A reduction in viability reflects the ability of the test compounds to induce programmed cell death via BAX and BAK.

[1] = Estimated free fraction in blood, calculated from Kd* with [HSA]total 700 μM; assay type: in vitro ADME; settings: human; [HSA]total set at 700 μM; read-out: Free Fraction est. in blood
Procedure: The free fraction in blood is estimated per the following equation, as derived by Trainor, Expert Opin. Drug Disc., 2007, 2(1):51-64, where [HSA]total is set at 700 μM. [formula]

[2] = molecular target: T1, human serum proteins (binding ascribed fully to human serum albumin, HSA) (human, UniProt P02768 25-609); test: cell-based or functional assay
T1 sequence (P02768 25-609 limits assumed): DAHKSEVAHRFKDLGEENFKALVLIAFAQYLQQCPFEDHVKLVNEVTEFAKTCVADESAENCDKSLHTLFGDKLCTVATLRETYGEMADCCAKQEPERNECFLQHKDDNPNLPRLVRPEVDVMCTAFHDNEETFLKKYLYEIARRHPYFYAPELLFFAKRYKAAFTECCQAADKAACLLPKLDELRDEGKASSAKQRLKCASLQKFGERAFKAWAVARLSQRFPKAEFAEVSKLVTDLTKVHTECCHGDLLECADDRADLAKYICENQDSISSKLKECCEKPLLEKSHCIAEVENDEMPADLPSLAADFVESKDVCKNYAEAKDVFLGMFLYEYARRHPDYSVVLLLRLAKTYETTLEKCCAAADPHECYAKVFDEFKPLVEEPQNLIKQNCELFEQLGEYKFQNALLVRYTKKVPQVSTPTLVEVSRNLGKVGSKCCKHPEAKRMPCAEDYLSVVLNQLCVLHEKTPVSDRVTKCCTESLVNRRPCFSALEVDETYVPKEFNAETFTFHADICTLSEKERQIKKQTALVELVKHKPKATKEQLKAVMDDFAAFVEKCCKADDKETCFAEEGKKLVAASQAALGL

[3] = molecular target: T1, human serum proteins (binding ascribed …); test: apparent Kd* by EC50 shift analysis: Jurkat viability EC50 at 0, 2 and 10% human serum, fit assuming 1:1 binding to HSA

Molecule	Kd (human serum proteins)	EC50 (Jurkat cell line)	fraction unbound [1]	efficacy in serum-free media and in the presence of serum (Jurkat cell line)	2% serum EC50 (Jurkat cell viability, CellTiter-Glo) [2]	10% serum EC50 (Jurkat cell viability, CellTiter-Glo) [2]	Kd [3]
CCCC[C@H](NC(=O)C1(C)CCCC=CCCCC(C)(NC(=O)[C@H](C)NC(=O)[C@H](CC(C)C)NC(=O)[C@H](Cc2c[nH]cn2)NC(=O)[C@H](CCCNC(=N)N)NC(=O)[C@H](C)NC(=O)[C@@H](NC(=O)[C@H](CC(N)=O)NC(=O)[C@H](CCCNC(=N)N)NC(=O)[C@@H](NC(=O)[C@H](C)NC(=O)[C@H](CC(=O)O)NC(C)=O)[C@@H](C)CC)[C@@H](C)CC)C(=O)N[C@@H](C(C)C)C(=O)NC(C)(C)C(=O)N[C@@H](CC(=O)O)C(=O)N1)C(=O)N[C@@H](C)C(=O)N[C@@H](CCCNC(=N)N)C(=O)N[C@@H](CO)C(=O)N[C@H](C(N)=O)[C@@H](C)CC (some centres unmarked) [Compound 4, Ac-DAIRNIARHLA$VAibD$NleARSI-NH2] (Ac-DAIRNIARHLA[ξαMeNle(6-ylidene)]V[Aib]D[ξαMeNle(6-ylidene)][Nle]ARSI-NH2; staple 12-16)	< 0.1 µM	1 µM	< 0.001				
CC[C@H](C)[C@H](NC(C)=O)C(=O)N[C@@H](Cc1c[nH]c2ccccc12)C(=O)N[C@H](C(=O)N[C@@H](C)C(=O)N[C@@H](CCC(N)=O)C(=O)N[C@@H](CCC(=O)O)C(=O)N[C@@H](CC(C)C)C(=O)N[C@@H](CCCNC(=N)N)C(=O)NC1(C)CCCC=CCCCC(C)(C(=O)N[C@@H](Cc2ccccc2)C(=O)N[C@@H](CC(N)=O)C(=O)N[C@@H](C)C(=O)N[C@@H](Cc2ccc(O)cc2)C(=O)N[C@@H](Cc2ccc(O)cc2)C(=O)N[C@@H](C)C(=O)N[C@@H](CCCNC(=N)N)C(=O)N[C@@H](CCCNC(=N)N)C(N)=O)NC(=O)[C@H](CC(=O)O)NC(=O)CNC(=O)[C@H]([C@@H](C)CC)NC1=O)[C@@H](C)CC (some centres unmarked) [Compound 10, Ac-IWIAQELR$IGD$FNAYYARR-NH2]	< 0.1 µM	1.3 µM	< 0.001	high efficacy in serum-free media, which is substantially reduced in the presence of serum			
CCCC[C@H](NC(=O)C1(C)CCCC=CCCCC(C)(NC(=O)[C@H](C)NC(=O)[C@H](CC(C)C)NC(=O)[C@H](Cc2c[nH]cn2)NC(=O)[C@H](CCCNC(=N)N)NC(=O)[C@H](C)NC(=O)[C@@H](NC(=O)[C@H](CC(N)=O)NC(=O)[C@H](CCCNC(=N)N)NC(=O)[C@@H](NC(=O)[C@@H](NC(=O)[C@H](CC(=O)O)NC(C)=O)[C@@H](C)CC)[C@@H](C)CC)[C@@H](C)CC)C(=O)N[C@@H](C(C)C)C(=O)NCC(=O)N[C@@H](CC(=O)O)C(=O)N1)C(=O)N[C@@H](CC(=O)O)C(=O)N[C@@H](CCCNC(=N)N)C(=O)N[C@@H](CO)C(=O)N[C@H](C(N)=O)[C@@H](C)CC (some centres unmarked) [Compound 1, Ac-DIIRNIARHLA$VGD$NleDRSI-NH2] (Ac-DIIRNIARHLA[ξαMeNle(6-ylidene)]VGD[ξαMeNle(6-ylidene)][Nle]DRSI-NH2; staple 12-16)	< 0.1 µM	1.2 µM	< 0.001	high efficacy in serum-free media, which is substantially reduced in the presence of serum			
Propionyl-RNI[Aib]RHL[Aib][S5]V[Aib]D[S5]AARSI-NH2 (staple 9-13) [Compound 9 (crosslinked polypeptide derived from human BID BH3)]					5.6 µM	20.2 µM	2.9 µM
B1					8.6 µM	26.5 µM	2.3 µM
Ac-IWIAQQLR[S5]IGD[S5]FNAYYARR-NH2 (staple 9-13) [Compound 11 (crosslinked polypeptide derived from human BIM BH3)]					7.9 µM	37.6 µM	1.1 µM
Ac-RWIAQQLR[S5]IGD[S5]FNAYYARR-NH2 (staple 9-13) [Compound 13 (crosslinked polypeptide derived from human BIM BH3)]					5.4 µM	21.5 µM	3.8 µM
Ac-RWIAQALR[S5]IGD[S5]FNAFYARR-NH2 (staple 9-13) [Compound 14 (crosslinked polypeptide derived from human BIM BH3)]					2.8 µM	10.8 µM	2.3 µM
Ac-RWIAQALR[S5]IGN[S5]FNAYYARR-NH2 (staple 9-13) [Compound 15 (crosslinked polypeptide derived from human BIM BH3)]					2.6 µM	11.5 µM	5.1 µM
Ac-IWIAQALR[S5]IGN[S5]FNAYYARR-NH2 (staple 9-13) [Compound 16 (crosslinked polypeptide derived from human BIM BH3)]					2.3 µM	9.3 µM	3.5 µM
Ac-DAARNIARHLA[S5]V[Aib]D[S5][Nle]ARSI-NH2 (staple 12-16) [Compound 2 (crosslinked polypeptide derived from human BID BH3)]					20.5 µM	97.1 µM	< 0.1 µM
Ac-DIARNIARHLA[S5]V[Aib]D[S5][Nle]ARSI-NH2 (staple 12-16) [Compound 3 (crosslinked polypeptide derived from human BID BH3)]					14.9 µM	88.9 µM	< 0.1 µM
Ac-DAIRNIARHLA[S5]V[Aib]D[S5][Nle]ARSI-NH2 (staple 12-16) [Compound 4 (crosslinked polypeptide derived from human BID BH3)]					11.3 µM	73.1 µM	< 0.1 µM
Ac-ERLRRRI[S5]LCR[S5]HHST-NH2 (staple 8-12, also called hMAML) [Compound 17 (crosslinked polypeptide derived from human MAML peptide sequence)]					55.1 µM	> 100 µM	< 0.1 µM
Ac-ERLRRRI[S5]LAR[S5]HHST-NH2 (staple 8-12, also called hMAML) [Compound 18 (crosslinked polypeptide derived from human MAML peptide sequence)]					> 100 µM	> 100 µM	< 0.1 µM
Ac-ALRRRI[S5]LCA[S5]HHST-NH2 (staple 7-11, also called hMAML) [Compound 19 (crosslinked polypeptide derived from human MAML peptide sequence)]					14.7 µM	57.5 µM	0.6 µM
